The values below come from patent US20230389573A1.

The target in experiment [1] is Angiotensin-converting enzyme-I (ACE-1).
The target of experiment [2] is SOP1 gelatine extracted from blue whiting skin and bone.
For experiment [3], the target named is SOP2 gelatine extracted from blue whiting skin and bone.
In experiment [4] the target is Angiotensin-converting enzyme-I (ACE-1). This is another data set of the same source.
The target in experiment [5] is Renin.

Regarding “Mackerel retentate (blood water fraction) (pool or library)”, the % ACE-I inhibition at 1 mg/mL in experiment [1] stood at 95.4%.

As to “Papain (EC number 3.4.22.2) (from UniProt P00784) (enzyme)”, the values for the degree of hydrolysis (DH) after 4 h, pH-stat method in experiment [2] and in experiment [3] were 20.4% and 19.4%, respectively.

Turning to “Alcalase (EC number 3.4.21.62) (from UniProt P00780) (enzyme)”, the values for the degree of hydrolysis (DH) after 4 h, pH-stat method in experiment [2] and in experiment [3] were 1.87% and 2.54%, respectively.

“≤3 KDa peptide fraction of the SOP2 gelatine papain hydrolysate (pool or library)”: the % ACE-1 inhibition at 1 mg/ml in experiment [4] was 84.5%.

Take “≤3 KDa peptide fraction of the SOP1 gelatine papain hydrolysate (pool or library)”: the % ACE-1 inhibition at 1 mg/ml in experiment [4] amounted to 80.5%.

As for “SOP2 gelatine papain hydrolysate (blue whiting skin and bone) (pool or library)”, in experiment [4], the % ACE-1 inhibition at 1 mg/ml amounted to 71.1%.

On to “Mackerel 10 KDa permeate (blood water fraction) (pool or library)”, for which the % ACE-I inhibition at 1 mg/mL in experiment [1] was found to be 96.9%.

As to “Blue whiting 10 KDa permeate (blood water fraction) (pool or library)”, in experiment [1], the % ACE-I inhibition at 1 mg/mL was found to be 33.1%.

Regarding “SOP1 gelatine alcalase hydrolysate (blue whiting skin and bone) (pool or library)”, the % ACE-1 inhibition at 1 mg/ml in experiment [4] amounted to 26.8%.

Take “Blue whiting 3 KDa permeate (blood water fraction) (pool or library)”: in experiment [1], the % ACE-I inhibition at 1 mg/mL was 28.9%. Moreover, in experiment [5], the % Renin inhibition at 1 mg/mL is 10.6%.

“SOP2 gelatine alcalase hydrolysate (blue whiting skin and bone) (pool or library)”: the % ACE-1 inhibition at 1 mg/ml in experiment [4] worked out at 25.1%.

Consider “Blue whiting retentate (blood water fraction) (pool or library)”, for which, in experiment [1], the % ACE-I inhibition at 1 mg/mL turned out to be 59.4%.

Turning to “≤3 KDa peptide fraction of the SOP2 gelatine alcalase hydrolysate (pool or library)”, the % ACE-1 inhibition at 1 mg/ml in experiment [4] stood at 87.1%.

As for “≤3 KDa peptide fraction of the SOP1 gelatine alcalase hydrolysate (pool or library)”, the % ACE-1 inhibition at 1 mg/ml in experiment [4] was 84.2%.

Consider “SOP1 gelatine papain hydrolysate (blue whiting skin and bone) (pool or library)”, for which, in experiment [4], the % ACE-1 inhibition at 1 mg/ml stood at 73.1%.

For “Mackerel 3 KDa permeate (blood water fraction) (pool or library)”, the % ACE-I inhibition at 1 mg/mL in experiment [1] came out at 83.9%. The % Renin inhibition at 1 mg/mL in experiment [5] was determined as 21%.
